One data set addresses T1, human KISS-receptor (Homo sapiens, UniProt Q969F8).
T1 construct: expressed in transfected cells; host or cells: CHO-k1 cells that also express mitochondrially targeted aequorin, Gα16 and an NFAT-luciferase reporter
Put plainly: NFAT-regulated luciferase reporter gene assay in CHO-k1 cells, agonist activity. The data set is classed as cell-based.

Data set [1] is described as follows: In vitro stability in human serum (LC/MS/MS). The note with it: for half-life at 750 nM: human.
Method: Test compound is added to 1.5 mL human serum in a 96-wells deepwell plate in a final concentration of 750 nM. The compound is mixed and immediately thereafter a 100 μl sample is harvested in a 96-wells 2D-tuberack (T=0 sample). The 2 D-tubes are closed with rubber tube caps and the sample plate is stored at −20° CF. in the freezer. The deepwell plate is put into an incubator which was set at humidified (95%) atmosphere at 5-7% CO2 and 37° C. for an incubation period of maximum 240 h. During this incubation period, samples of 100 μl are collected on various time intervals, dependent on the test compound used; time points 0, 1, 2, 3, 6, 24, 48, 72 h in case of Kisspeptides and 0, 3, 6, 24, 48, 72, 168, 240 h in case of kisspeptide-pentasaccharide conjugates. Sample plates are put on ice in case of sampling and stored at −20° C. until analysis by LC/MS/MS.
For LC-MS/MS analysis, the compounds are separated over an XTerra RP8 column and using a gradient mobile phase of ammonium acetate buffer and acetonitrile at a fixed column temperature. MS/MS detection is done with a triple quadrupole mass spectrometer and employing negative ion electrospray ionization. The mass spectrometer is set up to achieve a known degree of in source fragmentation, where the initially formed multiply charged negative ions lose one or more SO3 molecules. The most abundant of these secondary ions are then subjected to a common MS/MS experiment in which a single SO3 loss is monitored. The Q1 and Q3 mass filter settings for this MS/MS experiment have commonly been determined in method development. […] Internal standardization is accomplished by adding a different conjugate of approximately the same size to the bioanalytical samples.
The rate of compound loss is expressed as a half-life (plasma t^1/2). The t^1/2 for the test compound can be determined by plotting the natural logarithm (In) of the measured concentrations against time and fitting the line through all data points. The gradient of this line is the first order rate constant (k) for substrate disappearance and is determined by regression analysis. The rate constant is converted to a half-life according to the following equation: In vitro half-life(t^1/2)=−ln 2/k
The conditions of data set [2]: after clomiphene citrate treatment; cited from earlier work.
The conditions of data set [3]: cited from earlier work.
A further data set in a line: in vivo. How it is done: The pharmacokinetics of conjugate C8 were determined after administration of 40 nmol/kg IV in male and of 200 nmol/kg SC in female Sprague-Dawley rats.
[4] abbreviates: pEC50 serum, presence of 20% human serum.
Setting [5] is: absence of human serum, read-out: pEC50 (converted).
[6] abbreviates: presence of 20% human serum, read-out: pEC50 serum (converted).
Setting [7] is: female, Sprague-Dawley, rat, plasma, sc, 0.2 umol/kg.
The mark [8] stands for this setting: female, Sprague-Dawley, rat, plasma, sc, 200 nmol/kg.
[9] abbreviates: female, Sprague-Dawley, rat, plasma, sc, 0.6 umol/kg.
[10] abbreviates: male, Sprague-Dawley, rat, plasma, iv, 40 nmol/kg.

Structures are written as SMILES. pEC50: −log10 of the molar value. Counter-ions that a name gives are not always drawn. Like-named read-outs stand apart in the source and are kept apart here.

Here are results for 5 compounds from US9127038B2, “Kisspeptide-pentasaccharide conjugates” (Merck Sharp & Dohme Corp., priority 2011, dated 2015).

T1 sequence (Q969F8 whole entry): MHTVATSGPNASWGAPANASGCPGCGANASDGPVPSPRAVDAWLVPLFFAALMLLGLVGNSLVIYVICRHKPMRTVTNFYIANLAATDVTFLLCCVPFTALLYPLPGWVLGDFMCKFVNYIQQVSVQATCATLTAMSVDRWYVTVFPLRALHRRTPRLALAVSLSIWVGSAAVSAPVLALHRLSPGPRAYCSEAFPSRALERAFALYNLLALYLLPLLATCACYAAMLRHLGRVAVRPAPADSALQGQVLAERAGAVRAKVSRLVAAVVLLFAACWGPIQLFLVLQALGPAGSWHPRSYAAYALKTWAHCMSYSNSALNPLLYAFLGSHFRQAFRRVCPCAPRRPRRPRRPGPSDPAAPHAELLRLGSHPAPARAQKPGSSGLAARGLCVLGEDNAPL

On to `CNC(=N)NCCC[C@H](NC(=O)[C@H](CC(C)C)NC(=O)NNC(=O)[C@H](Cc1ccccc1)NC(=O)[C@@H](NC(=O)[C@H](CC(N)=O)NC(=O)[C@H](Cc1c[nH]c2ccccc12)NC(=O)[C@H](CC(N)=O)NC(=O)[C@@H](Cc1ccc(O)cc1)NC(=O)CCCCn1cc(CCC(=O)NCCOCCOCCOCCO[C@H]2[C@H](OC)[C@@H](OC)[C@@H](O[C@H]3[C@H](OC)[C@@H](OC)[C@H](O[C@H]4[C@H](OS(=O)(=O)O)[C@@H](OS(=O)(=O)O)[C@@H](O[C@H]5[C@H](OC)[C@@H](OC)[C@H](O[C@H]6[C@H](OC)[C@@H](OS(=O)(=O)O)[C@@H](OC)O[C@@H]6COS(=O)(=O)O)O[C@H]5C(=O)O)O[C@@H]4COS(=O)(=O)O)O[C@@H]3C(=O)O)O[C@@H]2COS(=O)(=O)O)nn1)[C@@H](C)O)C(=O)N[C@@H](Cc1ccccc1)C(N)=O` [Conjugate C7], for which the pEC50 at human KISS-receptor (pEC50, absence of human serum) was 9.80; on human KISS-receptor (setting [4]) it was 9.30. The half-life at 750 nM in data set [1] was 171 h.

On to `CCN(CC)CCOc1ccc(C(=C(Cl)c2ccccc2)c2ccccc2)cc1` [clomiphene citrate], for which, in data set [2], the ovulation rates is on record as 60%-90% and the pregnancy rates was 20%-40%.

For the compound `CNC(=N)NCCC[C@H](NC(=O)[C@H](CC(C)C)NC(=O)NNC(=O)[C@H](Cc1ccccc1)NC(=O)[C@@H](NC(=O)[C@H](CC(N)=O)NC(=O)[C@@H]1C[C@@H](O)CN1C(=O)[C@@H](Cc1ccc(O)cc1)NC(=O)CCOCCOCCOCCOCCn1cc(CCC(=O)NCCOCCOCCOCCO[C@H]2[C@H](OC)[C@@H](OC)[C@@H](O[C@H]3[C@H](OC)[C@@H](OC)[C@H](O[C@H]4[C@H](OS(=O)(=O)O)[C@@H](OS(=O)(=O)O)[C@@H](O[C@H]5[C@H](OC)[C@@H](OC)[C@H](O[C@H]6[C@H](OC)[C@@H](OS(=O)(=O)O)[C@@H](OC)O[C@@H]6COS(=O)(=O)O)O[C@H]5C(=O)O)O[C@@H]4COS(=O)(=O)O)O[C@@H]3C(=O)O)O[C@@H]2COS(=O)(=O)O)nn1)[C@@H](C)O)C(=O)N[C@@H](Cc1c[nH]c2ccccc12)C(N)=O` [Conjugate C34], the EC50 was 0.0407 nM on human KISS-receptor (setting [5]) and 0.141 nM on human KISS-receptor (setting [6]). This compound had a half-life at 750 nM in data set [1] of 138 h.

Turning to `CC(C)C[C@H](NC(=O)CNC(=O)[C@H](Cc1ccccc1)NC(=O)[C@H](CO)NC(=O)[C@H](CC(N)=O)NC(=O)[C@H](Cc1c[nH]c2ccccc12)NC(=O)[C@H](CC(N)=O)NC(=O)[C@@H](N)Cc1ccc(O)cc1)C(=O)N[C@@H](CCCNC(=N)N)C(=O)N[C@@H](Cc1ccccc1)C(N)=O` [Kiss-10, reference compound], the EC50 on human KISS-receptor (setting [5]) and on human KISS-receptor (setting [6]) was 1 nM in each case. In addition, the “stability (in words)” value in data set [1] (in words) is on record as “not sufficiently stable”. Further, the “half-life in human plasma” value in data set [3] was about 0.167 h.

Turning to `CNC(=N)NCCC[C@H](NC(=O)[C@H](CC(C)C)NC(=O)NNC(=O)[C@H](Cc1ccccc1)NC(=O)[C@@H](NC(=O)[C@H](CC(N)=O)NC(=O)[C@H](Cc1c[nH]c2ccccc12)NC(=O)[C@H](CC(N)=O)NC(=O)[C@@H](Cc1ccc(O)cc1)NC(=O)CCCCn1cc(CCC(=O)NCCOCCOCCOCCO[C@H]2[C@H](OC)[C@@H](OC)[C@@H](O[C@H]3[C@H](OC)[C@@H](OC)[C@H](O[C@H]4[C@H](OS(=O)(=O)O)[C@@H](OS(=O)(=O)O)[C@@H](O[C@H]5[C@H](OC)[C@@H](OC)[C@H](O[C@H]6[C@H](OS(=O)(=O)O)[C@@H](OS(=O)(=O)O)[C@@H](OC)O[C@@H]6COS(=O)(=O)O)O[C@H]5C(=O)O)O[C@@H]4COS(=O)(=O)O)O[C@@H]3C(=O)O)O[C@@H]2COS(=O)(=O)O)nn1)C(C)O)C(=O)N[C@@H](Cc1ccccc1)C(N)=O` (stereo partly drawn) [Conjugate C8], at human KISS-receptor (pEC50, absence of human serum), the pEC50 is 9.80. Moreover, the pEC50 at human KISS-receptor (setting [4]) is 8.14. For the same compound, the “AUCN(0-∞) IV” value in “in vivo” (40 nmol/kg IV, male rats) was 60.4 nM·kg·h/µg. Besides, in “in vivo” (200 nmol/kg SC, female rats), the “AUCN(0-∞) SC” value is 56.5 nM·kg·h/µg and the F is recorded as 94%. In the data set “in vivo” (setting [7]), this compound came in with an area under the curve AUC(0-inf) of 38.7 µM·h, a Cmax of 2310 nM and a level at time molar at 24 h of 490 nM. The Tmax in the data set “in vivo” (female, Sprague-Dawley, rat, plasma, sc, 0.2 umol/kg, Tmax, SC 0.2 μmol/kg, female rats) turned out to be 2.7 h. In “in vivo” (setting [8]), this compound had a Cmax of 2310 nM and a bioavailability of 93.5%. In addition, the Tmax in the data set “in vivo” (female, Sprague-Dawley, rat, plasma, sc, 200 nmol/kg, Tmax, 200 nmol/kg SC, female rats) was 2.7 h. In addition, in “in vivo” (female, Sprague-Dawley, rat, plasma, sc, 200 nmol/kg, tmax, following subcutaneous administration), the Tmax lay in the range of 2.7 to 3.3 h. Also, in “in vivo” (setting [9]), the AUC(0-inf) amounted to 90.5 µM·h, the highest level (Cmax) was 5180 nM and the level at time molar at 24 h stood at 1100 nM. Moreover, in “in vivo” (female, Sprague-Dawley, rat, plasma, sc, 0.6 umol/kg, Tmax, SC 0.6 μmol/kg, female rats), the Tmax was determined as 1.7 h. In the data set “in vivo” (setting [10]), this compound had a Vd of 0.067 L/kg, a clearance of 4.8 mL/h/kg and a half-life of 11.5 h. The same compound displayed a half-life at 750 nM in data set [1] of over 240 h.
